The values below come from the supplement of paper PMC10567573.

This data set is described as follows: protein stability index of a GFP-peptide fusion (GPS, HEK-293T) (PSI 1-6); higher = more stable. The conditions noted are these: c terminus: a fixed tail appended.

± gives the standard deviation.
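Further: 24-mer peptide tiles fused after GFP, lentivirally expressed, FACS-sorted into six equal bins by GFP/DsRed ratio, decoded by Illumina sequencing, PSI is the read-weighted mean bin number.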

In the case of HSFFPDAFDYNSLSPTQRQKNFEL [SMTNL2], the protein stability index came to 3.35 ± 0.19 (treatment: DMSO) and 3.44 ± 0.4 (treatment: MLN4924 1 uM, 8 h).

For the sequence HTSTARLLLHRGAGKEAMTSDGYT [RIPK4], the protein stability index by setting is: (treatment: DMSO) 3.61 ± 0.22; (treatment: MLN4924 1 uM, 8 h) 3.75 ± 0.29.

As for HVLPAVLAEVAPVVTTEHILVSVA [PYCR3], the protein stability index came to 2.65 ± 0.63 (treatment: DMSO) and 2.8 ± 0.72 (treatment: MLN4924 1 uM, 8 h).

For the sequence HVMNPLETLSITNCRLSEGDVMHL [PRAME], the protein stability index reads like this: (treatment: DMSO) 2.54 ± 0.79; (treatment: MLN4924 1 uM, 8 h) 2.4 ± 0.24.

On to HYANLNGLYGSTVDHQGVSWYHWK [TNXB], for which the protein stability index runs as follows: (treatment: DMSO) 2.5 ± 0.14; (treatment: MLN4924 1 uM, 8 h) 2.8 ± 0.66.

HYFHSISYKIEEISPSTLKNSLFP [KCNK9]: the protein stability index reads like this: (treatment: DMSO) 2.17 ± 0.28; (treatment: MLN4924 1 uM, 8 h) 2.18 ± 0.18.

HYGGVVSLIPLILDLMKEWIAHSE [SPACA9]: the protein stability index is, setting by setting: (treatment: DMSO) 3.02 ± 0.46; (treatment: MLN4924 1 uM, 8 h) 2.23 ± 0.46.

On to ICARACNATLTQYQLLATHVPTVW [RHOBTB2], for which the protein stability index stood at 2.67 ± 0.13 (treatment: DMSO) and 2.41 ± 0.4 (treatment: MLN4924 1 uM, 8 h).

Take ICIMDAENITTVSVIKDHHTRSIT [WDR88]: the protein stability index (treatment: DMSO) came out at 2.34 ± 0.31 and the protein stability index (treatment: MLN4924 1 uM, 8 h) was found to be 2.18 ± 0.24.

With IDDRYGDLDSRTDSDIPEIPPSSD [CDS1], the protein stability index turned out to be 5.43 ± 0.34 (treatment: DMSO) and 5.45 ± 0.19 (treatment: MLN4924 1 uM, 8 h).

On to IEIGCEDKTLAFKMNGYISNANYS [MLH1], for which the protein stability index (treatment: DMSO) is 2.34 ± 0.3.

Turning to IELEGISVMVMREILDYIFSGQIR [GAN], the protein stability index was found to be 3.37 ± 0.23 (treatment: DMSO) and 2.86 ± 0.49 (treatment: MLN4924 1 uM, 8 h).

Take IERANNVKYGLAATVWSSNVGRVH [ALDH8A1]: the protein stability index was 2.66 ± 0.29 (treatment: DMSO) and 2.8 ± 0.25 (treatment: MLN4924 1 uM, 8 h).

For the sequence IFCEEHFPVAEQDKLLKHMIIEHK [ZNF277], the protein stability index was 2.75 ± 0.23 (treatment: DMSO) and 3.01 ± 0.4 (treatment: MLN4924 1 uM, 8 h).

The sequence IFNHERFFWHLTLPERRGTCADRD [CASP6] displayed a protein stability index (treatment: DMSO) of 2.6 ± 0.21 and a protein stability index (treatment: MLN4924 1 uM, 8 h) of 2.93 ± 0.27.

On to IGFGVYFEWTDSPNTAVSVHVSES [ACBD3], for which the protein stability index was 2.64 ± 0.9 (treatment: DMSO) and 2.95 ± 0.6 (treatment: MLN4924 1 uM, 8 h).

The sequence IGGNHLKGFSHLDVMLVECYDPKG [KLHL14] displayed a protein stability index (treatment: DMSO) of 2.11 ± 0.47 and a protein stability index (treatment: MLN4924 1 uM, 8 h) of 2.21 ± 0.34.

With IGLWGLAVKGSLGSDLGGPLPTDP [TSPAN10], the protein stability index runs as follows: (treatment: DMSO) 2.32 ± 0.27; (treatment: MLN4924 1 uM, 8 h) 2.39 ± 0.29.

IGRGTKVILHLKEDQTEYLEERRV [HSP90AB1]: the protein stability index (treatment: DMSO) came to 3.34 ± 0.16 and the protein stability index (treatment: MLN4924 1 uM, 8 h) turned out to be 3.57 ± 0.29.

On to IHDSEFKEYTTRTQAPPSVILGVT [DENND6A], for which the protein stability index was 3.22 ± 0.17 (treatment: DMSO) and 3.29 ± 0.31 (treatment: MLN4924 1 uM, 8 h).

Turning to IHSIALSTFASLIGPFGGFFASGF [CDS2], the protein stability index came to 3.12 ± 0.2 (treatment: DMSO) and 2.99 ± 0.16 (treatment: MLN4924 1 uM, 8 h).

On to IHSIPKGTEITIAFDFDYGNCKYK [KMT2E], for which the protein stability index reads like this: (treatment: DMSO) 2.19 ± 0.31; (treatment: MLN4924 1 uM, 8 h) 1.98 ± 0.32.

Sequence IKECLSKGTFSDVTFKLDDGAISA [RHOBTB1] registered a protein stability index (treatment: DMSO) of 3.67 ± 0.18 and a protein stability index (treatment: MLN4924 1 uM, 8 h) of 3.95 ± 0.19.

As for IKKIEEHAPGVPKILVGNRLHLAF [RAB40A], the protein stability index is, setting by setting: (treatment: DMSO) 2.39 ± 0.5; (treatment: MLN4924 1 uM, 8 h) 2.27 ± 0.2.

With IKRLWKDSGVQACFNRSREYQLND [GNAI1], the protein stability index turned out to be 2.4 ± 0.41 (treatment: DMSO) and 2.44 ± 0.72 (treatment: MLN4924 1 uM, 8 h).

As to ILDAMAEETRQKQLLADEKMKQLT [TRIM35], the protein stability index (treatment: DMSO) stood at 4.52 ± 0.23 and the protein stability index (treatment: MLN4924 1 uM, 8 h) came out at 4.68 ± 0.21.

With ILEDMRCQYEALVENNRRDVEAWF [KRT36], the protein stability index by setting is: (treatment: DMSO) 2.49 ± 0.19; (treatment: MLN4924 1 uM, 8 h) 2.84 ± 0.45.

For ILENSSQKENVFKCDSLKEECIPE [FAN1], the protein stability index runs as follows: (treatment: DMSO) 4.68 ± 0.37; (treatment: MLN4924 1 uM, 8 h) 4.95 ± 0.09.

Consider ILRAIGKGSFGKVCIVQKNDTKKM [STK32A], for which the protein stability index runs as follows: (treatment: DMSO) 2.4 ± 0.45; (treatment: MLN4924 1 uM, 8 h) 2.56 ± 0.22.

On to ILVMKHNYSQDAADACDIDEIEEV [NETO1], for which the protein stability index is, setting by setting: (treatment: DMSO) 4.11 ± 0.16; (treatment: MLN4924 1 uM, 8 h) 4.18 ± 0.28.

Consider IMNIIDIVSILPYFITLGTDLAQQ [KCNA4], for which the protein stability index came out at 3.37 ± 0.44 (treatment: DMSO) and 2.95 ± 0.49 (treatment: MLN4924 1 uM, 8 h).

Regarding INQPLPDLKNVKSKIGSTDNIKYQ [MAP2], the protein stability index runs as follows: (treatment: DMSO) 4.29 ± 0.17; (treatment: MLN4924 1 uM, 8 h) 4.47 ± 0.16.

As to INRCSVLRQLGCKDGKNWNSNQAT [SPOPL], the protein stability index reads like this: (treatment: DMSO) 2.65 ± 0.28; (treatment: MLN4924 1 uM, 8 h) 2.78 ± 0.28.

In the case of INTLITSGADTAKCGIHSMFPLHL [ANKRD44], the protein stability index runs as follows: (treatment: DMSO) 1.8 ± 0.21; (treatment: MLN4924 1 uM, 8 h) 2.64 ± 0.84.

On to INYLGAESLRPLVQTPPGGSEVVP [IKZF1], for which the protein stability index was determined as 4.07 ± 0.2 (treatment: DMSO) and 3.88 ± 0.28 (treatment: MLN4924 1 uM, 8 h).

Take IPNAASEEGDEDDWASNKVMFKIG [WEE1]: the protein stability index worked out at 4.62 ± 0.13 (treatment: DMSO) and 4.28 ± 0.3 (treatment: MLN4924 1 uM, 8 h).

On to IQDVVQPLTLQVQRPLVSVTVSDA [AUP1], for which the protein stability index was determined as 3.56 ± 0.28 (treatment: DMSO) and 3.58 ± 0.22 (treatment: MLN4924 1 uM, 8 h).
